Experimental data from PMC7346098 (Biochemistry, 2020).

Target: T1, KaiC_(S431E,T432E) (Synechococcus elongatus (PCC 7942), UniProt Q79PF4 1-519, S431E | T432E)
T1 sequence (looked up): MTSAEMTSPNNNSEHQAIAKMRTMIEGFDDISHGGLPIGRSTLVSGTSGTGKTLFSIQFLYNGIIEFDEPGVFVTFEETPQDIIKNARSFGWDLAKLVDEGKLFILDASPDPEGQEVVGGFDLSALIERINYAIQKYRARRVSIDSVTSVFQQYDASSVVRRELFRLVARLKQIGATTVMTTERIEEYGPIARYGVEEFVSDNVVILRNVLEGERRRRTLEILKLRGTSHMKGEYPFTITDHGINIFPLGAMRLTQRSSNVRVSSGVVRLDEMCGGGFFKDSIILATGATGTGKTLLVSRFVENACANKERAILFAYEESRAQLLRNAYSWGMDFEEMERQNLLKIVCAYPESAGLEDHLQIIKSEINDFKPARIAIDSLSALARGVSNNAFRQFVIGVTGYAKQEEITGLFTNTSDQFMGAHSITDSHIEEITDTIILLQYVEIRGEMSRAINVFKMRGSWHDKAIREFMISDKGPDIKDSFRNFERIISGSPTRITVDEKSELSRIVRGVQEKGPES
Experiment: fluorescence polarisation

B1: WT-KaiB (natural protein, Synechococcus elongatus (PCC 7942), UniProt Q79PF5 1-102, looked up)
chain: MSPRKTYILKLYVAGNTPNSVRALKTLKNILEVEFQGVYALKVIDVLKNPQLAEEDKILATPTLAKVLPLPVRRIIGDLSDREKVLIGLDLLYGELQDSDDF
binding result: binds
